For experiment [1], the target named is murine cdb3-GFP, substitution of residues 12-23 (all 7 acidic residues to amides) (mouse) (UniProt P04919). Kind of experiment: FRET or BRET. (In BRET a luciferase serves as donor, and the signal depends on an acceptor being close.)
Experiment [2] has as its target murine cdb3-GFP, deletion of residues 19-23 (mouse) (UniProt P04919). The experiment can be described thus: FRET or BRET.
Experiment [3] has as its target murine cdb3-GFP, substitution of residues 19-23 (acidic residues to amides) (mouse) (UniProt P04919). Kind of experiment: FRET or BRET.
Experiment [4] concerns the target murine cdb3-GFP, substitution of residues 25-31 (negative residues introduced) (mouse) (UniProt P04919). The experiment can be described thus: other fluorescence titration.

Usually Kd stands for the equilibrium constant for the complex coming apart. A higher Kd goes with weaker binding. As to “murine hemoglobin (from erythrocytes of C57BL/6J mice) (from UniProt P01942 1-142; P02088 1-147) (complex)”, the affinity for deoxyHb, percent of normal in experiment [1] amounted to 15%. The reduction in deoxyHb binding against wild type in experiment [2] and in experiment [3] was 60% in each case. In experiment [4], the Kd came out at 390 nM.

For the origin of these results see PMC3332082.
